Measurements published in IntAct's records for PubMed 20679240.

B1: Circadian clock oscillator protein KaiC (Synechococcus elongatus (strain PCC 7942)), Q79PF4 (parent)
chain: MTSAEMTSPNNNSEHQAIAKMRTMIEGFDDISHGGLPIGRSTLVSGTSGTGKTLFSIQFLYNGIIEFDEPGVFVTFEETPQDIIKNARSFGWDLAKLVDEGKLFILDASPDPEGQEVVGGFDLSALIERINYAIQKYRARRVSIDSVTSVFQQYDASSVVRRELFRLVARLKQIGATTVMTTERIEEYGPIARYGVEEFVSDNVVILRNVLEGERRRRTLEILKLRGTSHMKGEYPFTITDHGINIFPLGAMRLTQRSSNVRVSSGVVRLDEMCGGGFFKDSIILATGATGTGKTLLVSRFVENACANKERAILFAYEESRAQLLRNAYSWGMDFEEMERQNLLKIVCAYPESAGLEDHLQIIKSEINDFKPARIAIDSLSALARGVSNNAFRQFVIGVTGYAKQEEITGLFTNTSDQFMGAHSITDSHISTITDTIILLQYVEIRGEMSRAINVFKMRGSWHDKAIREFMISDKGPDIKDSFRNFERIISGSPTRITVDEKSELSRIVRGVQEKGPES
partner: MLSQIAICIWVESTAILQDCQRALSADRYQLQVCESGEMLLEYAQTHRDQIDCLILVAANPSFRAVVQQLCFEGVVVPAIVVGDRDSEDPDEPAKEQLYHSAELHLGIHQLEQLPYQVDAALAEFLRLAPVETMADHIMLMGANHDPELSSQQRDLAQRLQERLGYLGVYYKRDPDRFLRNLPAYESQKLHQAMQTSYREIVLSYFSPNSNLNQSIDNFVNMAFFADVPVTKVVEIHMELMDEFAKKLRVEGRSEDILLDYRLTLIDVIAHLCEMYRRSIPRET
B2: Circadian clock oscillator protein KaiC (Synechococcus elongatus (strain PCC 7942)), Q79PF4 (parent)
chain: B1 chain
partner: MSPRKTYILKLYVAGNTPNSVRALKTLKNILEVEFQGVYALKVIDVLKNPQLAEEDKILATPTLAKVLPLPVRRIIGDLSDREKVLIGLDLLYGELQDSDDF

Variants of: B1
Conditions: with kaia_syne7 kaiA

effect of a mutation on the interaction | Variant
increasing interaction strength | S431E;T432E
decreasing interaction strength | S431A;T432A

Variants of: B2
Conditions: with kaib_syne7 kaiB

effect of a mutation on the interaction | Variant
disrupting interaction strength | S431D;T432A
disrupting interaction strength | S431A
disrupting interaction strength | S431A;T432E
disrupting interaction strength | S431A;T432A
